This is an account of results in patent US7229777B2, “Hairpin peptides with a novel structural motif and methods relating thereto” (Genentech, Inc., priority 2001, dated 2007).

Series [1] is described as follows: CD-monitored thermal denaturation (two-state unfolding fit). To be noted: for ΔCp / Tm / ΔHm: 20 μM peptide in 20 mM potassium phosphate; for ΔCp / Tm / ΔSm / ΔHm: pH 7.0; for Tm: CD at 229 nm; for ΔSm: calculated from the fit parameters (ΔHm/Tm), 20 μM peptide, 20 mM potassium phosphate; for ΔHm: ΔH at Tm. The format is physicochemical. On the procedure: Spectra were acquired with an Aviv Instruments, Inc. Model 202 spectrophotometer. Peptide concentrations were determined spectrophotometrically as described in Gill & von Hippel (1989) Anal. Biochem. 182:319–326. Melting curves were acquired at 229 nm with […] equilibration at each temperature and an averaging time of 15 s. Thermal denaturation was reversible, as judged by recovery of CD signal (≧95%) upon cooling. In addition, reverse melting curves were acquired for trpzips 1 and 4. Reverse and forward curves were identical in shape, with≦0.5 K shift in Tm. As a model for the unfolded state of the peptides, the melting curve (linear) of an equimolar mixture of the trpzip1 half peptides SWTWEG[SEQ ID NO: 14] and NKWTWK [SEQ ID NO: 15] was measured. Data for the trpzip peptides were then fit to a two-state unfolding equilibrium as described in Minor & Kim (1994) Nature 367:660–663, fixing the unfolded baseline. Folded baselines, Tm, ΔHm (ΔH at Tm), and ΔCp were allowed to vary. For trpzips 5 and 6, the unfolded baseline could be fit directly to the experimental data. ΔSm was calculated from the fit parameters (ΔHm/Tm). Errors in Table 2 were generated by the fitting algorithm (Kaleidagraph, Synergy Software) and were given to indicate the quality of the fits to the particular experimental data set. However, when fitting different data sets, ΔHm and ΔCp values varied by ˜10%, as is typical in thermal denaturation experiments. Becktel & Scheilman (1987) Biopolymers 26:1859–1877.
Fitting the trpzip denaturation curves in this manner required large shifts in Tm (˜5–10 K higher than the minimum in a derivative plot) and generated fits of lower quality. […] From our data on trpzips 4, 5 and 6, we can estimate ΔCp ˜200 cal mol^−1 K^−1 for the gb1 peptide, which is sufficient to explain the discrepancy between our population estimate for the gb1 hairpin and those previously reported (Munoz et al. (1997), supra; Honda et al. (2000), supra). Recently, a non-zero ΔCp (˜100 cal mol^−1 K^−1) was reported for the unfolding of a 12-residue hairpin related to gb1. Espinosa & Gellman (2000) Angew. Chem. Int. Ed. 39:2330–2333.

The conditions of series [2]: literature estimates, in water, gb1 at 278 K by NMR, cited from earlier work.
Series [3] can be described thus: Analytical (equilibrium) ultracentrifugation. The format is physicochemical. Particulars: for σobs/σcalc (reduced apparent molecular weight, observed/calculated): non-ideal single-species model, 20 mM potassium phosphate, 150 mM KCl, pH 7.1, 277 K. On the procedure:
Samples (in 20 mM potassium phosphate, 150 mM KCl, pH 7.1; 277 K) were analyzed in a Beckman XL-A ultracentrifuge at rotor speeds of 40 and 55 krpm. Peptide concentration was monitored by absorbance at or near 290 nm. Data for both speeds and two initial peptide concentrations (60 and 200 μM, […] data sets total per peptide) were fit simultaneously to a nonideal single species model using the program NONLIN. Johnson et al. (1981) Biophys. J. 36: 575–588.
Allowing nonideality improved the fit for the 200 μM samples while only slightly changing the reduced apparent molecular weight σ (˜+6%). For all 3 peptides, data from 60 μM samples fit an ideal model (FIG. 2) with random residuals. Expected σ values were determined from partial specific volumes based on residue composition, calculated buffer density, and monomer formula weights.

Read-outs that look alike come from different tables or passages of the source. Square brackets hold non-standard residues; d marks the D form. Ends that are not written are not given here.

As to “GEWTYDDATKTFTVTE (Streptococcus; Streptococcus Full The 41-56 residue fragment of the protein G B1 domain) [gb1, reference compound]”, in series [1], the “ΔCp, estimated from data on trpzips 4, 5 and 6” value is on record as approximately 200 cal mol^−1 K^−1. Besides, in series [1] (298 K, estimated from trpzips 4, 5 and 6), the “ΔGunf, estimated assuming additive stabilization from the two pairs” value was approximately -0.6 kcal/mol. Further, the figures for the Hairpin population in series [2] and in series [2] (listed as GB1 hairpin) were approximately 40% and “about 50%”, respectively.

As a reminder, the Tm is the temperature at which the thermal transition is half complete. Consider “GEWHWDDATKTWVWTE (GEWHWDDATKTWVWTE-NH2) [trpzip7]”, for which, in series [1], the ΔCp turned out to be 418 ± 4 cal mol^−1 K^−1, the Tm is 80.2 ± 0.1 °C, the ΔSm is reported as 70.8 cal mol^−1 K^−1 and the ΔHm came out at 25.03 ± 0.1 kcal/mol.

As to “GEWTWDDATKTWTVTE (GEWTWDDATKTWTVTE-NH2) [trpzip6]”, in series [1], the ΔCp worked out at 236 ± 17 cal mol^−1 K^−1, the Tm was determined as 44.6 ± 0.48 °C, the ΔSm is 32.4 cal mol^−1 K^−1 and the ΔHm was 10.29 ± 0.3 kcal/mol. Moreover, the unfolding free energy in series [1] (298 K) turned out to be 0.49 kcal/mol.

On to “GEWVWDDATKTWVWTE (GEWVWDDATKTWVWTE-NH2) [trpzip9]”, for which, in series [1], the ΔCp is 402 ± 2 cal mol^−1 K^−1, the Tm was determined as 92.0 ± 0.0 °C, the ΔSm is reported as 73.1 cal mol^−1 K^−1 and the ΔHm is 26.69 ± 0.08 kcal/mol.

For the substance “SWTWEGNKWTWK (SWTWEGNKWTWK-NH2) [trpzip1]”, the “σobs/σcalc (reduced apparent molecular weight, observed/calculated)” value in series [3] is reported as 1.02 ± 0.04. In addition, in series [1], the ΔCp was 231 ± 4 cal mol^−1 K^−1, the Tm is 49.9 ± 0.3 °C, the ΔSm is given as 33.4 cal mol^−1 K^−1 and the ΔHm was found to be 10.79 ± 0.12 kcal/mol. The Tm in series [1] (listed as Trpzip1) worked out at 50 °C. In addition, the “Dependence of thermal denaturation on peptide concentration” value in series [1] (trpzip1 20–150 μM, trpzip4 100 μM vs. 20 μM) is on record as “does not shift with peptide concentration”.

In the case of “GEWTWDDATKTWTWTE (GEWTWDDATKTWTWTE-NH2) [trpzip4]”, in series [1], the ΔCp is 380 ± 4 cal mol^−1 K^−1, the Tm worked out at 70.0 ± 0.1 °C, the ΔSm was 63.7 cal mol^−1 K^−1 and the ΔHm stood at 21.86 ± 0.06 kcal/mol. For the same substance, the unfolding free energy in series [1] (298 K) was found to be 1.69 kcal/mol. The “Melting temperature higher than that of wt gb1 peptide” value in series [1] (depending on the method used to estimate the folded population of gb1) is recorded as “at least 40 K”.

For the substance “SWTWENGKWTWK (SWTWENGKWTWK-NH2) [trpzip2]”, in series [3], the “Peptide concentration up to which monomeric” value is recorded as “at least 200 μM” and the “σobs/σcalc (reduced apparent molecular weight, observed/calculated)” value is 1.01 ± 0.04. For the same substance, in series [1], the ΔCp amounted to 281 ± 2 cal mol^−1 K^−1, the Tm is 71.9 ± 0.1 °C, the ΔSm is recorded as 48.6 cal mol^−1 K^−1 and the ΔHm was found to be 16.77 ± 0.06 kcal/mol.

Turning to “GEWVWDDATKTWHWTE (GEWVWDDATKTWHWTE-NH2) [trpzip8]”, in series [1], the ΔCp worked out at 440 ± 4 cal mol^−1 K^−1, the Tm is 79.1 ± 0.1 °C, the ΔSm is given as 73.8 cal mol^−1 K^−1 and the ΔHm is 25.98 ± 0.11 kcal/mol.

Consider “SWTWEpNKWTWK (SWTWE[dP]NKWTWK-NH2; N-terminus assumed; SMILES C[C@@H](O)[C@H](NC(=O)[C@H](Cc1c[nH]c2ccccc12)NC(=O)[C@H](CCCCN)NC(=O)[C@H](CC(N)=O)NC(=O)[C@H]1CCCN1C(=O)[C@H](CCC(=O)O)NC(=O)[C@H](Cc1c[nH]c2ccccc12)NC(=O)[C@@H](NC(=O)[C@H](Cc1c[nH]c2ccccc12)NC(=O)[C@@H](N)CO)[C@@H](C)O)C(=O)N[C@@H](Cc1c[nH]c2ccccc12)C(=O)N[C@@H](CCCCN)C(N)=O) [trpzip3]”, for which the “σobs/σcalc (reduced apparent molecular weight, observed/calculated)” value in series [3] is given as 1.00 ± 0.04. In series [1], the ΔCp came to 195 ± 2 cal mol^−1 K^−1, the Tm is 78.7 ± 0.2 °C, the ΔSm is reported as 37.0 cal mol^−1 K^−1 and the ΔHm stood at 13.02 ± 0.07 kcal/mol.

For “GEWTYDDATKTFTWTE (GEWTYDDATKTFTWTE-NH2) [trpzip5]”, in series [1], the ΔCp was found to be 325 ± 10 cal mol^−1 K^−1, the Tm amounted to 42.7 ± 0.2 °C, the ΔSm is 42.2 cal mol^−1 K^−1 and the ΔHm was found to be 13.32 ± 0.14 kcal/mol. Moreover, in series [1] (298 K), the unfolding free energy worked out at 0.57 kcal/mol.
